Earlier results in publication PMC2845642.
Where two headings read alike, the source gives them in different places.

Legend:
[1] = biological target: CD28 (Homo sapiens) (UniProt P10747)
[2] = biological target: CD28 (Homo sapiens) (UniProt P10747); remark: listed apart in the source

| Kd [1] [µM] | Kd [2] [µM] | Substance |
| --- | --- | --- |
| 4 |  | CD80 (from UniProt P33681) |
|  | 20 | CD86 (from UniProt P42081) |
